{
  "source": "paper PMC6908751",
  "key": {"[1]": {"target": "Sh2 N9 Y169aH NA ectodomain (stabilized tetramer) (influenza A virus A/Shanghai/02/2013 (H7N9))"}, "[2]": {"target": "Sh2 N9 Y169aH NA ectodomain (stabilized tetramer) (influenza A virus A/Shanghai/02/2013 (H7N9))", "test": "crystal structure"}},
  "note": "Read-outs that look alike come from different tables or passages of the source.",
  "data": [
    {"substance": "Sh2 N9 Y169aH NA ectodomain (stabilized tetramer) (domain or fragment)", "values": [
      {"measurement": "stoichiometry N", "setting": "[1]", "result": 4},
      {"measurement": "stoichiometry N", "setting": "[2]", "result": 4}
    ]}
  ]
}
